# Laboratory results as given in patent publication US20220332804A1 (CSL INNOVATION, published 2022).
# Substitutions are numbered along the chain they refer to.
# T1: human C2 N268A (human, UniProt P06681 21-752)
# T1 sequence: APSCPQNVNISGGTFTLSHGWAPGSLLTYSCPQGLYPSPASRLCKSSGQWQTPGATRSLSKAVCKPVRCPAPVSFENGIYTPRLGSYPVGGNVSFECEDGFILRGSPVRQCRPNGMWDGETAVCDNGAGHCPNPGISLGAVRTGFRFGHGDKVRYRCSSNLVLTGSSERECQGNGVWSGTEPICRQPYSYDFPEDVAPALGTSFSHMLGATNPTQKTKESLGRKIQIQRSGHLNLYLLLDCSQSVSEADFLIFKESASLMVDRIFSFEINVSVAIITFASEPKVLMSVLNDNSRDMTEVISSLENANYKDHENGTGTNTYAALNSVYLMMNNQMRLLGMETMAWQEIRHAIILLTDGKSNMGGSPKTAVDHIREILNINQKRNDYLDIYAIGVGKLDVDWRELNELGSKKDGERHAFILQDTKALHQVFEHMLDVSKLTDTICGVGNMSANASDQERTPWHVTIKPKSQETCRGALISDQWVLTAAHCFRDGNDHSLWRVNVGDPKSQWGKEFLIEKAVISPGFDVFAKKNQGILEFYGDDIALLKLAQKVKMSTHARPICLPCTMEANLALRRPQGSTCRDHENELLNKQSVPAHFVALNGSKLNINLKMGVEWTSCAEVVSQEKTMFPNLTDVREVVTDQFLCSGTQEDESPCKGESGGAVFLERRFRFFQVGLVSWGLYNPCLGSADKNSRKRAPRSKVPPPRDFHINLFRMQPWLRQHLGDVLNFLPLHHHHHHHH
# T2: human C2 G677A (human, UniProt P06681 21-752)
# T2 sequence: T1 sequence with A248N, G657A
# T3: human C2 T647A (human, UniProt P06681 21-752)
# T3 sequence: T1 sequence with A248N, T627A
# T4: human C2 G432A (human, UniProt P06681 21-752)
# T4 sequence: T1 sequence with A248N, G412A
# B1: RF16-226 (antibody, human IgG4 S228P, lambda)
# heavy: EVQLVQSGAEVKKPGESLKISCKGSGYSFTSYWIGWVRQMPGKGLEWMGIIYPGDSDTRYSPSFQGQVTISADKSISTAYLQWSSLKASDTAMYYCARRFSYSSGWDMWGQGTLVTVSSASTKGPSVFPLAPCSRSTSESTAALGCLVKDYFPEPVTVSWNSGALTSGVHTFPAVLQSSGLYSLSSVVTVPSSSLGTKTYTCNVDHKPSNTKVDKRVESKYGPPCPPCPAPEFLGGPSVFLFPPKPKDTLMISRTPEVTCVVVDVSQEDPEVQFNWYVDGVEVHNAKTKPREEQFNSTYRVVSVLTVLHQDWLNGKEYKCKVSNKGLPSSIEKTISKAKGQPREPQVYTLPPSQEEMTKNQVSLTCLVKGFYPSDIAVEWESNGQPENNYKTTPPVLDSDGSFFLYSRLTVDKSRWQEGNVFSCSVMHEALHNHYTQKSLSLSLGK
# light: SYELTQPPSVSVSPGQTARITCSGDALTSKYVAWYQQKSGLAPLLVIYEDTRRPSGIPAKFSGSSSGSVATLTISGAHGDDEADYYCYSTDASGHQRVFGGGTKLTVLSQPKAAPSVTLFPPSSEELQANKATLVCLISDFYPGAVTVAWKADGSPVKAGVETTKPSKQSNNKYAASSYLSLTPEQWKSHRSYSCQVTHEGSTVEKTVAPTECS
# notes: pH-dependent anti-C2 antibody from a phage display library; also called WT
# Assays:
# Assay in all cases: SPR, KD relative to WT C2;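 also: biacore SPR at 37 °C, anti-C2 mAbs captured via immobilised goat anti-human IgG, C2 alanine or serine surface mutants as analytes, 1:1 model fitted, double-referenced sensograms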
# [1] = molecular target: T1, human C2 N268A
# [2] = molecular target: T2, human C2 G677A
# [3] = molecular target: T3, human C2 T647A
# [4] = molecular target: T4, human C2 G432A
binder,measurement,setting,value
B1,Fold diff,[1],1 fold
same,Fold diff,[2],1 fold
same,Fold diff,[3],15 fold
same,Fold diff,[4],1 fold
